Test results from publication PMC8930771, “Structural basis of phosphatidylinositol 3-kinase C2α function” (Nature Structural & Molecular Biology, 2022).

B1: PI3KC2α^ΔN+ΔPX−C2 WT (mouse PI3KC2α amino acids 377–1,400) [mouse] / GST-distal C2 (PI3KC2α amino acids 1,561–1,686) [mouse] (parent complex)
chain 1: VQNDEVAAFCQSIMKLKTKFPYTDHCTNPGYLLSPVTVQRNMCGENASVKVSIEIEGLQLPVTFTCDVSSTVEIIIMQALCWVHDDLNQVDVGSYILKVCGQEEVLQNNHCLGSHEHIQNCRKWDTEIKLQLLTLSAMCQNLARTAEDDEAPVDLNKYLYQIEKPYKEVMTRHPVEELLDSYHYQVELALQTENQHRAVDQVIKAVRKICSALDGVETPSVTEAVKKLKRAVNLPRNKSADVTSLSGSDTRKNSTKGSLNPENPVQVSMDHLTTAIYDLLRLHANSSRCSTACPRGSRNIKEAWTATEQLQFTVYAAHGISSNWVSNYEKYYLICSLSHNGKDLFKPIQSKKVGTYKNFFYLIKWDELIIFPIQISQLPLESVLHLTLFGVLNQSSGSSPDSNKQRKGPEALGKVSLTLFDFKRFLTCGTKLLYLWTSSHTNSIPGAIPKKSYVMERIVLQVDFPSPAFDIIYTSPQIDRNIIQQDKLETLESDIKGKLLDIIHRDSSFGLSKEDKVFLWENRYYCLKHPNCLPKILASAPNWKWANLAKTYSLLHQWPPLCPLAALELLDAKFADQEVRSLAVSWMEAISDDELADLLPQFVQALKYEIYLNSSLVRFLLSRALGNIQIAHSLYWLLKDALHDTHFGSRYEHVLGALLSVGGKGLREELSKQMKLVQLLGGVAEKVRQASGSTRQVVLQKSMERVQSFFLRNKCRLPLKPSLVAKELNIKSCSFFSSNAMPLKVTMVNADPLGEEINVMFKVGEDLRQDMLALQMIKIMDKIWLKEGLDLRMVIFRCLSTGRDRGMVELVPASDTLRKIQVEYGVTGSFKDKPLAEWLRKYNPSEEEYEKASENFIYSCAGCCVATYVLGICDRHNDNIMLRSTGHMFHIDFGKFLGHAQMFGSFKRDRAPFVLTSDMAYVINGGEKPTIRFQLFVDLCCQAYNLIRKQTNLFLNLLSLMIPSGLPELTSIQDLKYVRDALQPQTTDAEATIFFTRLIESSLGSIATKFNFFIHNLAQLRFSG
chain 2: GAVKLSVSYRNGTLFIMVMHIKDLVTEDGADPNPYVKTYLLPDTHKTSKRKTKISRKTRNPTFNEMLVYSGYSKETLRQRELQLSVLSAESLRENFFLGGITLPLKDFNLSKETVKWYQLTAATYL

Variants of: B1
Test: GST pull-down, SDS-PAGE with Coomassie Blue staining, quantified with ImageJ; n = 3; binding of WT set to 100%; parent: 100; read off a plot

percent of parent [%] | Variant
~42 | chain 1 K50A, chain 1 W82A, chain 1 D85A, chain 1 D86A
